This is an account of results in patent US20140079711A1.

Test [1] deals with CD147 N-domain (Asp19 to Asn117 of SEQ ID NO: 1) (human). The experiment in a line: SPR (Biacore 3000), mAb captured by anti-mouse Fc, N-domain fragment injected. In general terms: Surface plasmon resonance follows binding to a sensor surface in real time, without labels.
Test [2] concerns the target CD147 Asp19-Asn117-Fc fusion protein (human) (UniProt P35613). The experiment in a line: competition ELISA on coated CD147 Asp19-Asn117-Fc; competitor 2H3; 5F6 against labeled 2H3. In general terms: ELISA stands for enzyme-linked immunosorbent assay.
For test [3] the target is unchanged. Nature of the test: competition ELISA on coated CD147 Asp19-Asn117-Fc; competitor 2H3; 2C8 as competitor against 2H3 on coated CD147 Asp19-Asn117-Fc.
Test [4] has the same target. The experiment in a line: competition ELISA on coated CD147 Asp19-Asn117-Fc; competitor 5F6; 2C8 as competitor against 5F6 on coated CD147 Asp19-Asn117-Fc.

B1: 5F6(mIgG1) (antibody, V domains shown)
VH: EMKLEESGGGLVQPGGSMKLSCVASGFTFSNYWMNWVRQSPEKGLEWVAQIRLKSYNYATHYAESVKGRFTISRDDSKSSVYLQMNNLRAEDTGIYYCTPDGSDYWGQGTTLTVSS
VL: SIVMTQTPKFLLVSAGDRVTITCKASQSVSNDVAWYQQKPGQSPKLLIYYASNRYTGVPDRFTGSGYGTDFTFTISTVQAEDLAVYFCQQDYSSPYTFGGGTKLEIK
In general, Kd refers to the constant that tells how readily two partners part at equilibrium. A higher Kd goes with lower affinity. A word on the IC50: it is the point on the concentration scale where inhibition reaches its midpoint. Regarding B1, the Kd in test [1] was found to be 0.00046 µM. Besides, in test [2], the IC50 turned out to be 1 µM.

B2: 2C8(mIgG1) (antibody, V domains shown)
VH: EMKLEESGGGLVQPGGSMKLSCVASGFTFSNYRMNWVRQSPEKGLEWVAQIRLKSYNYATHYAESVKGRFTISRDDSKSSVYLQMNNLRAEDTGIYYCTPDGSDYWGQGTTLTVSS
VL: DILMTQSPSSMSVSLGDTVSITCHASQGISSSIGWLQQKPGKSFKGLIYHGTNLEDGVPSRFTGSGSGADYSLTISSLESEDFADYYCVQYAQFPYTFGGGTKLEIK
As for B2, the IC50 in test [3] and in test [4] was 0.03 µM throughout. Besides, the Kd in test [1] was 0.00043 µM.
